Source: patent publication US20260132192A1 (XBIOTECH, published 2026)

Target: T1, recombinant human IL-1α (human, UniProt P01583 113-271)
T1 sequence (looked up): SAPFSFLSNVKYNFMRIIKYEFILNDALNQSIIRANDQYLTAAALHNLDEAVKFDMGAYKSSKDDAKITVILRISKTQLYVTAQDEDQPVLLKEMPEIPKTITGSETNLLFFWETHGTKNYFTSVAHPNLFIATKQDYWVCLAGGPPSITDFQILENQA
Test: cell-based or functional assay

B1: human monoclonal antibody designated XIA12 (antibody, V domains shown)
VH: QVQLVQSGAEVKKPGSSVKVSCKASGGRFTNYAILWVRQAPGQGLQWLGGIIPIFDETDHAQDFQDRLTITVDESMTTAYMELSSLRPEDTAIYYCATGSNSYYGLYWGQGTLVTVSS
VL: DIVMTQSPDFLAVSLGERATINCKSSQSVLYSSDNKNYLAWYQQKAGQPPKLLIYWASTRESGVPDRFSGSGSATDFTLTISSLQAEDVAVYYCQQYYSLPITFGQGTRLEIKR
- HUVEC-based potency assay; ICAM-1 expression by flow cytometry after hIL-1α stimulation; IC50: 0.0187 µg/mL
